# B1: CCDC6 (parent)
# chain: ASVTIQARAEQEEEFISNTLFKKI
# Variants of: B1
# Experiment: protein stability index of a GFP-peptide fusion (GPS, HEK-293T) (PSI 1-6); higher = more stable
# Conditions: c terminus: a fixed tail appended
# 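Further: lentivirally expressed fusions sorted by FACS into six bins by GFP to DsRed ratio, PSI derived from sequencing read proportions per bin multiplied by bin number.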
row,Variant,protein stability index
1,ASVTIQARAEQEEEFIINTLFKKI,2.85
2,ASVTIQARAEQEEEFICNTLFKKI,2.8
3,ASVTIQARAEQEEEFIHNTLFKKI,3.58
4,ASVTIQARAEQEEEFIGNTLFKKI,3.5
5,ASVTIQARAEQEEEFIVNTLFKKI,3.18
6,ASVTIQARAEQEEEFIENTLFKKI,3.9
7,ASVTIQARAEQEEEFISNILFKKI,2.94
8,ASVTIQARAEQEEEFISNYLFKKI,2.96
9,ASVTIQARAEQEEEFISNCLFKKI,3.25
10,ASVTIQARAEQEEEFISNGLFKKI,4.04
11,ASVTIQARAEQEEEFISNFLFKKI,2.72
12,ASVTIQARAEQEEEFISNVLFKKI,3.21
13,ASVTIQARAEQEEEFISNQLFKKI,3.86
14,ASVTIQARAEQEEEFISNELFKKI,3.81
15,ASVTIQARAEQEEEFISNKLFKKI,3.72
16,ASVTIQARAEQEEEFISNTLTKKI,4.49
17,ASVTIQARAEQEEEFISNTLGKKI,4.71
18,ASVTIQARAEQEEEFISNTLYKKI,3.72
19,ASVTIQARAEQEEEFISNTLMKKI,4.46
20,ASVTIQARAEQEEEFISNTLSKKI,4.37
21,ASVTIQARAEQEEEFISNTLRKKI,4.54
22,ASVTIQARAEQEEEFISNTLHKKI,3.88
23,ASVTIQARAEQEEEFISNTLAKKI,4.66
24,ASVTIQARAEQEEEFISNTLVKKI,4.39

row,Variant,protein stability index
1,ASVTIQARAEQEEEFISNTLDKKI,4.87
2,ASVTIQARAEQEEEFISNTLLKKI,4.78
3,ASVTIQARAEQEEEFISNTLCKKI,4.76
4,ASVTIQARAEDEEEFISNTLFKKI,3.99
5,ASVTIQARAESEEEFISNTLFKKI,3.75
6,ASVTIQARAEPEEEFISNTLFKKI,3.67
7,ASVTIQARAELEEEFISNTLFKKI,2.97
8,ASVTIQARAEKEEEFISNTLFKKI,3.4
9,ASVTIQARAEGEEEFISNTLFKKI,3.49
10,ASVTIQARAEQEEEFISNTLFKKQ,4.36
11,ASVTIQARAEQEEEFISNTLFKKD,4.85
12,ASVTIQARAEQEEEFISNTLFKKH,4.37
13,ASVTIQARAEQEEEFISNTLFKKL,4.23
14,ASVTIQARAEQEEEFISNTLFKKY,3.56
15,ASVTIQARAEQEEEFISNTLFKKA,4.14
16,ASVTIQARAEQEEEFISNTLFKKG,4.48
17,ASVTIQARAEQEEEFISNTLFKKP,4.25
18,ASVTIQARAEQEEEFISNTLFKKC,4.52
19,ASVTWQARAEQEEEFISNTLFKKI,3.66
20,ASVTHQARAEQEEEFISNTLFKKI,4.32
21,ASVTTQARAEQEEEFISNTLFKKI,4.28
22,ASVTAQARAEQEEEFISNTLFKKI,4.34
23,ASVTFQARAEQEEEFISNTLFKKI,3.96
24,ASVTKQARAEQEEEFISNTLFKKI,4.65

row,Variant,protein stability index
1,ASVTEQARAEQEEEFISNTLFKKI,4.58
2,ASVTLQARAEQEEEFISNTLFKKI,3.84
3,ASVTQQARAEQEEEFISNTLFKKI,5.03
4,ASVTCQARAEQEEEFISNTLFKKI,4.5
5,ASVTSQARAEQEEEFISNTLFKKI,4.24
6,ASVTIQNRAEQEEEFISNTLFKKI,3.69
7,ASVTIQQRAEQEEEFISNTLFKKI,3.93
8,ASVTIQERAEQEEEFISNTLFKKI,4.49
9,ASVTIQGRAEQEEEFISNTLFKKI,3.66
10,ASVTIQTRAEQEEEFISNTLFKKI,3.85
11,ASVTIQLRAEQEEEFISNTLFKKI,2.12
12,ASVTIQYRAEQEEEFISNTLFKKI,2.8
13,ASVTIQVRAEQEEEFISNTLFKKI,2.8
14,ASVTIQFRAEQEEEFISNTLFKKI,1.98
15,ASVTIQCRAEQEEEFISNTLFKKI,2.45
16,ASVTIQIRAEQEEEFISNTLFKKI,1.93
17,ASVTIQMRAEQEEEFISNTLFKKI,2.67
18,ASVTIQARAEQEEEFISNTLFKYI,1.98
19,ASVTIQARAEQEEEFISNTLFKPI,3.19
20,ASVTIQARAEQEEEFISNTLFKVI,2.73
21,ASVTIQARAEQEEEFISNTLFKWI,2.23
22,ASVTIQARAEQEEEFISNTLFKEI,3.89
23,ASVTIQARAEQEEEFISNTLFKCI,2.96
24,ASVTIQARAEQEEEFISNTLFKTI,3.34

row,Variant,protein stability index
1,ASVTIQARAEQEEEFISNTLFKDI,3.21
2,ASVTIQARAEQEEEFISNTLFKSI,3.04
3,ASVTIQARNEQEEEFISNTLFKKI,3.63
4,ASVTIQARKEQEEEFISNTLFKKI,3.6
5,ASVTIQARDEQEEEFISNTLFKKI,4.42
6,ASVTIQARQEQEEEFISNTLFKKI,4.09
7,ASVTIQARSEQEEEFISNTLFKKI,3.79
8,ASVTIQAREEQEEEFISNTLFKKI,4.16
9,ASVTIQARVEQEEEFISNTLFKKI,2.91
10,ASVTIQARLEQEEEFISNTLFKKI,2.5
11,ASVTIQARPEQEEEFISNTLFKKI,3.87
12,ASVTIQARAEQEEEFISNTLFNKI,3.98
13,ASVTIQARAEQEEEFISNTLFVKI,1.91
14,ASVTIQARAEQEEEFISNTLFMKI,1.74
15,ASVTIQARAEQEEEFISNTLFYKI,2.21
16,ASVTIQARAEQEEEFISNTLFTKI,2.86
17,ASVTIQARAEQEEEFISNTLFCKI,2.17
18,ASVTIQARAEQEEEFISNTLFLKI,2.19
19,ASVTIQARAEQEEEFISNTLFSKI,3.64
20,ASVTIQARAEQEEEFISNTLFPKI,4.13
21,ASVTIQARAEQEPEFISNTLFKKI,3.4
22,ASVTIQARAEQEMEFISNTLFKKI,2.58
23,ASVTIQARAEQEDEFISNTLFKKI,3.54
24,ASVTIQARAEQEAEFISNTLFKKI,2.8

row,Variant,protein stability index
1,ASVTIQARAEQEVEFISNTLFKKI,2.41
2,ASVTIQARAEQEWEFISNTLFKKI,2.08
3,ASVTIQARAEQENEFISNTLFKKI,3.16
4,ASVTIQARAEQEFEFISNTLFKKI,2.23
5,ASVTIQARAEQEYEFISNTLFKKI,2
6,VSVTIQARAEQEEEFISNTLFKKI,2.56
7,YSVTIQARAEQEEEFISNTLFKKI,2.27
8,PSVTIQARAEQEEEFISNTLFKKI,3.59
9,RSVTIQARAEQEEEFISNTLFKKI,3.51
10,WSVTIQARAEQEEEFISNTLFKKI,1.86
11,MSVTIQARAEQEEEFISNTLFKKI,3.1
12,SSVTIQARAEQEEEFISNTLFKKI,3.75
13,ESVTIQARAEQEEEFISNTLFKKI,4.39
14,ASVTIQARAEQEEEFISNTPFKKI,4.14
15,ASVTIQARAEQEEEFISNTMFKKI,4.44
16,ASVTIQARAEQEEEFISNTQFKKI,4.62
17,ASVTIQARAEQEEEFISNTFFKKI,3.46
18,ASVTIQARAEQEEEFISNTDFKKI,4.76
19,ASVTIQARAEQEEEFISNTVFKKI,3.82
20,ASVTIQARAEQEEEFISNTWFKKI,2.91
21,ASVTIQARAEQEEEFISNTKFKKI,4.15
22,ASVTIQARAEQEENFISNTLFKKI,2.95
23,ASVTIQARAEQEERFISNTLFKKI,2.52
24,ASVTIQARAEQEEQFISNTLFKKI,2.99

row,Variant,protein stability index
1,ASVTIQARAEQEEAFISNTLFKKI,3.13
2,ASVTIQARAEQEELFISNTLFKKI,1.89
3,ASVTIQARAEQEEPFISNTLFKKI,3.01
4,ASVTIQARAEQEEFFISNTLFKKI,1.87
5,ASVTIQARAEQEEYFISNTLFKKI,2.31
6,ASVTIQARAEQEEWFISNTLFKKI,1.81
7,ASVTIQARAEQEEDFISNTLFKKI,3.31
8,ASVVIQARAEQEEEFISNTLFKKI,2.88
9,ASVYIQARAEQEEEFISNTLFKKI,2.56
10,ASVNIQARAEQEEEFISNTLFKKI,3.98
11,ASVDIQARAEQEEEFISNTLFKKI,4.17
12,ASVFIQARAEQEEEFISNTLFKKI,2.44
13,ASVIIQARAEQEEEFISNTLFKKI,3.33
14,ASVKIQARAEQEEEFISNTLFKKI,3.29
15,ASVTIQARAEQEEESISNTLFKKI,4.03
16,ASVTIQARAEQEEECISNTLFKKI,4.19
17,ASVTIQARAEQEEEAISNTLFKKI,4.49
18,ASVTIQARAEQEEEKISNTLFKKI,4.13
19,ASVTIQARAEQEEEHISNTLFKKI,3.72
20,ASVTIQARAEQEEEFFSNTLFKKI,3.49
21,ASVTIQARAEQEEEFRSNTLFKKI,3.92
22,ASVTIQARAEQEEEFNSNTLFKKI,4.57
23,ASVTIQARAEQEEEFMSNTLFKKI,3.82
24,ASVTIQARAEQEEEFDSNTLFKKI,4.34

row,Variant,protein stability index
1,ASVTIQARAIQEEEFISNTLFKKI,2.39
2,ASVTIQARACQEEEFISNTLFKKI,2.1
3,ASVTIQARAKQEEEFISNTLFKKI,3.15
4,ASVTIQARAAQEEEFISNTLFKKI,3.06
5,ASVTIQARAVQEEEFISNTLFKKI,2.27
6,AGVTIQARAEQEEEFISNTLFKKI,3.92
7,AWVTIQARAEQEEEFISNTLFKKI,2.37
8,AVVTIQARAEQEEEFISNTLFKKI,2.73
9,AFVTIQARAEQEEEFISNTLFKKI,2.11
10,ASVTIQARAEQEEEFISVTLFKKI,1.5
11,ASVTIQARAEQEEEFISRTLFKKI,3.07
12,ASVTIQARAEQEEEFISATLFKKI,3.27
13,ASVTIQARAEQEEEFISPTLFKKI,3.96
14,ASVTIQARAEQEEEFISMTLFKKI,2.34
15,ASVTIQARAEQEEEFISYTLFKKI,2.07
16,ASVTIQARAEQEEEFISWTLFKKI,2.43
17,ASVTIQARAEQEEEFISLTLFKKI,2.56
18,ASATIQARAEQEEEFISNTLFKKI,4.51
19,ASPTIQARAEQEEEFISNTLFKKI,4.5
20,ASCTIQARAEQEEEFISNTLFKKI,1.9
21,ASRTIQARAEQEEEFISNTLFKKI,3.9
22,ASVTIQAWAEQEEEFISNTLFKKI,3.27
23,ASVTIQAQAEQEEEFISNTLFKKI,4.14
24,ASVTIQAIAEQEEEFISNTLFKKI,2.98

row,Variant,protein stability index
1,ASVTIQAPAEQEEEFISNTLFKKI,4
2,ASVTIQAGAEQEEEFISNTLFKKI,4.13
3,ASVTIQAMAEQEEEFISNTLFKKI,3.12
4,ASVTIQACAEQEEEFISNTLFKKI,3.27
5,ASVTIQADAEQEEEFISNTLFKKI,4.23
6,ASVTIQARAEQTEEFISNTLFKKI,2.68
7,ASVTIQARAEQYEEFISNTLFKKI,2.2
8,ASVTIQARAEQFEEFISNTLFKKI,2.12
9,ASVTIQARAEQKEEFISNTLFKKI,3.17
10,ASVTIQARAEQVEEFISNTLFKKI,2.19
11,ASVTIQARAEQWEEFISNTLFKKI,2.21
12,ASVTIQARAEQCEEFISNTLFKKI,2.35
13,ASVTIQARAEQNEEFISNTLFKKI,3.06
14,ASVTIVARAEQEEEFISNTLFKKI,2.71
15,ASVTIGARAEQEEEFISNTLFKKI,3.73
16,ASVTIDARAEQEEEFISNTLFKKI,4.32
17,ASVTIKARAEQEEEFISNTLFKKI,3.98
18,ASVTIHARAEQEEEFISNTLFKKI,3.49
19,ASVTIFARAEQEEEFISNTLFKKI,2.89
20,ASVTIPARAEQEEEFISNTLFKKI,4.2
